According to patent US20250304712A1 (NATIONAL UNIVERSITY OF SINGAPORE, published 2025):

B1: murine anti-LY6K antibody G57 (antibody, V domains shown)
VH: EVQLVESGGDLVKPGGSLKLSCAASGFTFNSYGMSWVRQTPDKRLEWVATISSGGTYTYYSDSVKGRFTISRDNAKNILYLHMSSLKSEDTAMYYCARHDWDFFDYWGQGTTLTVSS
VL: DVVMTQTPLSLPVSLGDQASISCRSSQSLVHTDGDTYLNWYLQKPGQSPKLLIYKVSNRFSGVPDRFSGSGSGTDFTLKIRRVEAEDLGVYFCSQNTHVYTFGGGTKLE
notes: Hybridoma-derived; also called Ms G57
B2: humanized 22C-G8 (antibody, V domains shown)
VH: QVQLVQSGAEVKKPGASVKVSCKASGYTFTSYWMHWVRQAPGQGLEWIGEINPSNGGANYNEKFKRRATMTVDKSTSTVYMELSSLRSEDTAVYYCTMGGNFFFAYWGQGTLVTVSS
VL: DVVMTQSPLSLSVTLGQPASISCKSSQSLLASDGKTYLNWFQQRPGQSPRRLIYLVSKLDSGVPDRFSGSGSGTDFTLKISRVEAEDVGVYYCWQGSHFPLTFGGGTKVE
notes: CDR-grafted into human frameworks; also called Hu22C-G8; Hu 22C-G8

What was measured:
[1] = biological target: T1, Lymphocyte antigen 6 family member K (LY6K) expressed on the cell surface of human cells (human, UniProt Q17RY6 18-138); assay: flow cytometry on human cancer cell lines
T1 construct: whole, on cells; overexpressed in HEK293T for ADCC; also called LY6K on Ca Ski, Calu-1 and other human cancer cell lines; HEK293T-Ly6K overexpressing cells
T1 sequence (looked up): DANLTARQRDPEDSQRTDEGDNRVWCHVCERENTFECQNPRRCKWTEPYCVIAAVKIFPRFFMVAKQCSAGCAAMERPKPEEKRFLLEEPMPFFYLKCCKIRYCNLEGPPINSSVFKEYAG

[2] = biological target: T1, Lymphocyte antigen 6 family member K …; assay: flow cytometry on Calu-1 cells

Row | Binder | binding result [1] | binding result [2]
1 | B1 | binds | –
2 | B2 | – | binds
